The values that follow come from US20070224180.

The target in one series is T1, PACAP(1-27).
T1 chain: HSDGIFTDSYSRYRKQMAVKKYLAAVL

For series [1], the target named is T2, Fluorescence-quenched Big-ET-1 analogue (17 aa Big-ET).
T2 chain: DIAWFXTPEHVVPYGLG

The target of series [2] is T3, endothelin (ET-1), P05305.
T3 chain: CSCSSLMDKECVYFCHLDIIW

The target of the next series is T4, substance P, P20366.
T4 chain: RPKPQQFFGLM

The target of series [3] is T5, atrial natriuretic peptide (ANP), P01160.
T5 chain: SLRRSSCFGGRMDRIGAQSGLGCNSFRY

Series [4] concerns the target T6, big endothelin (Big ET-1), P05305.
T6 chain: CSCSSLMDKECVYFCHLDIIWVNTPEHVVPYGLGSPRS

Marks after values point to notes of the source that are not given here.

bradykinin, P01042, sequence (P01042 whole entry, looked up): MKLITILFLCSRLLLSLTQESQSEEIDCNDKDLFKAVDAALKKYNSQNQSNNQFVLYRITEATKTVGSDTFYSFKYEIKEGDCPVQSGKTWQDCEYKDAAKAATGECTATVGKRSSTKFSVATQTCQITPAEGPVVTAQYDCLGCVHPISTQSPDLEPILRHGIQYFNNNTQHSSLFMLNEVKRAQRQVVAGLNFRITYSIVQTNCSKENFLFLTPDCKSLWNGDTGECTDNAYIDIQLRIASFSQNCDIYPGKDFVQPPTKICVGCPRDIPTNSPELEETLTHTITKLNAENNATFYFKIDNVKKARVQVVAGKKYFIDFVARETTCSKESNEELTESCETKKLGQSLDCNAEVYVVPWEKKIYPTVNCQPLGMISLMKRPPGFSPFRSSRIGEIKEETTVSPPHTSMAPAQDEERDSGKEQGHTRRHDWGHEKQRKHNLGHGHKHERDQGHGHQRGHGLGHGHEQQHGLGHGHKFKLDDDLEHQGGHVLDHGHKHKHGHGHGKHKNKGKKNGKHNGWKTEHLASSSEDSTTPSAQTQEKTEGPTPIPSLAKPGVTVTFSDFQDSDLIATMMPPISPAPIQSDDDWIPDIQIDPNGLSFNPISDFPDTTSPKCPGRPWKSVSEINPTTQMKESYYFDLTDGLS
angiotensin-1, P01019, sequence (P01019 whole entry, looked up): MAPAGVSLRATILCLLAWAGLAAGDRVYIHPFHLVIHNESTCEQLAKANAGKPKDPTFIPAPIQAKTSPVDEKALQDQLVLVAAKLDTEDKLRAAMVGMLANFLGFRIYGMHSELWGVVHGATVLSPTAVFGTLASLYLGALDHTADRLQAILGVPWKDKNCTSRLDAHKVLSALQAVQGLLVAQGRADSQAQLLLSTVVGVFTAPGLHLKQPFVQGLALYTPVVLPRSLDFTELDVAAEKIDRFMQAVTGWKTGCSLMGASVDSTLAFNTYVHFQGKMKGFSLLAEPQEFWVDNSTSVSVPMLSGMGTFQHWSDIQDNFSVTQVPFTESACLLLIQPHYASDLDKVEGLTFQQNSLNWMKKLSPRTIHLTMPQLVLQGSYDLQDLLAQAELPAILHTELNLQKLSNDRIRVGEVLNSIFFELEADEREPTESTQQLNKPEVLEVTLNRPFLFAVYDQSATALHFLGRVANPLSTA

B1: NEP (recombinantly produced and purified neutral endopeptidase, neprilysin) (protein)
chain: YDDGICKSSDCIKSAARLIQNMDATTEPCTDFFKYACGGWLKRNVIPETSSRYGNFDILRDELEVVLKDVLQEPKTEDIVAVQKAKALYRSCINESAIDSRGGEPLLKLLPDIYGWPVATENWEQKYGASWTAEKAIAQLNSKYGKKVLINLFVGTDDKNSVNHVIHIDQPRLGLPSRDYYECTGIYKEACTAYVDFMISVARLIRQEERLPIDENQLALEMNKVMELEKEIANATAKPEDRNDPMLLYNKMTLAQIQNNFSLEINGKPFSWLNFTNEIMSTVNISITNEEDVVVYAPEYLTKLKPILTKYSARDLQNLMSWRFIMDLVSSLSRTYKESRNAFRKALYGTTSETATWRRCANYVNGNMENAVGRLYVEAAFAGESKHVVEDLIAQIREVFIQTLDDLTWMDAETKKRAEEKALAIKERIGYPDDIVSNDNKLNNEYLELNYKEDEYFENIIQNLKFSQSKQLKKLREKVDKDEWISGAAVVNAFYSSGRNQIVFPAGILQPPFFSAQQSNSLNYGGIGMVIGHEITHGFDDNGRNFNKDGDLVDWWTQQSASNFKEQSQCMVYQYGNFSWDLAGGQHLNGINTLGENIADNGGLGQAYRAYQNYIKKNGEEKLLPGLDLNHKQLFFLNFAQVWCGTYRPEYAVNSIKTDVHSPGNFRIIGTLQNSAEFSEAFHCRKNSYMNPEKKCRVW
Take B1: the “cleavage of PACAP(1-27), HPLC” value in the series with PACAP(1-27) is “None of the aforementioned enzymes was able to cleave PACAP(1-27) under the assay conditions as described above for IGS5”.

B2: ECE-1 (recombinantly produced endothelin converting enzyme-1) (protein)
chain: QYQTRSPSVCLSEACVSVTSSILSSMDPTVDPCHDFFSYACGGWIKANPVPDGHSRWGTFSNLWEHNQAIIKHLLENSTASVSEAERKAQVYYRACMNETRIEELRAKPLMELIERLGGWNITGPWAKDNFQDTLQVVTAHYRTSPFFSVYVSADSKNSNSNVIQVDQSGLGLPSRDYYLNKTENEKVLTGYLNYMVQLGKLLGGGDEEAIRPQMQQILDFETALANITIPQEKRRDEELIYHKVTAAELQTLAPAINWLPFLNTIFYPVEINESEPIVVYDKEYLEQISTLINTTDRCLLNNYMIWNLVRKTSSFLDQRFQDADEKFMEVMYGTKKTCLPRWKFCVSDTENNLGFALGPMFVKATFAEDSKSIATEIILEIKKAFEESLSTLKWMDEETRKSAKEKADAIYNMIGYPNFIMDPKELDKVFNDYTAVPDLYFENAMRFFNFSWRVTADQLRKAPNRDQWSMTPPMVNAYYSPTKNEIVFPAGILQAPFYTRSSPKALNFGGIGVVVGHELTHAFDDQGREYDKDGNLRPWWKNSSVEAFKRQTECMVEQYSNYSVNGEPVNGRHTLGENIADNGGLKAAYRAYQNWVKKNGAEHSLPTLGLTNNQLFFLGFAQVWCSVRTPESSHEGLITDPHSPSRFRVIGSLSNSKEFSEHFRCPPGSPMNPPHKCEVW
Regarding B2, the “cleavage of PACAP(1-27), HPLC” value with PACAP(1-27) is “None of the aforementioned enzymes was able to cleave PACAP(1-27) under the assay conditions as described above for IGS5”.

B3: His6-tagged IGS5 ectodomain (recombinant soluble His-tagged human IGS5) (protein)
chain: GSHHHHHHSEVCTTPGCVIAAARILQNMDPTTEPCDDFYQFACGGWLRRHVIPETNSRYSIFDVLRDELEVILKAVLENSTAKDRPAVEKARTLYRSCMNQSVIEKRGSQPLLDILEVVGGWPVAMDRWNETVGLEWELERQLALMNSQFNRRVLIDLFIWNDDQNSSRHIIYIDQPTLGMPSREYYFNGGSNRKVREAYLQFMVSVATLLREDANLPRDSCLVQEDMMQVLELETQLAKATVPQEERHDVIALYHRMGLEELQSQFGLKGFNWTLFIQTVLSSVKIKLLPDEEVVVYGIPYLQNLENIIDTYSARTIQNYLVWRLVLDRIGSLSQRFKDTRVNYRKALFGTMVEEVRWRECVGYVNSNMENAVGSLYVREAFPGDSKSMVRELIDKVRTVFVETLDELGWMDEESKKKAQEKAMSIREQIGHPDYILEEMNRRLDEEYSNLNFSEDLYFENSLQNLKVGAQRSLRKLREKVDPNLWIIGAAVVNAFYSPNRNQIVFPAGILQPPFFSKEQPQALNFGGIGMVIGHEITHGFDDNGRNFDKNGNMMDWWSNFSTQHFREQSECMIYQYGNYSWDLADEQNVNGFNTLGENIADNGGVRQAYKAYLKWMAEGGKDQQLPGLDLTHEQLFFINYAQVWCGSYRPEFAIQSIKTDVHSPLKYRVLGSLQNLAAFADTFHCARGTPMHPKERCRVW
Regarding B3, the % Hydrolysis in series [1] was 41%; in series [4], “(?)****”; with PACAP(1-27), 69%. Moreover, the % Hydrolysis (100 ng IGS5 polypeptide; 0.5 µM substrate; 2 h, 37° C.) in series [2] was below 30%; with angiotensin-1, P01019, 15%; with substance P, P20366, 100%; in series [3], 5%; in the series with bradykinin, P01042, 100%. The % Hydrolysis (*500 ng IGS5 polypeptide) in series [3] was 80%. This protein also came in with a % Hydrolysis (**10 ng IGS5 polypeptide) with bradykinin, P01042 of 62%.

B4: XCE/DINE (recombinantly produced) (protein)
chain: KYLGPVAAGGGACPEGCPERKAFARAARFLAANLDASIDPCQDFYSFACGGWLRRHAIPDDKLTYGTIAAIGEQNEERLRRLLARPGGGPGGAAQRKVRAFFRSCLDMREIERLGPRPMLEVIEDCGGWDLGGAEERPGVAARWDLNRLLYKAQGVYSAAALFSLTVSLDDRNSSRYVIRIDQDGLTLPERTLYLAQDEDSEKILAAYRVFMERVLSLLGADAVEQKAQEILQVEQQLANITVSEHDDLRRDVSSMYNKVTLGQLQKITPHLRWKWLLDQIFQEDFSEEEEVVLLATDYMQQVSQLIRSTPHRVLHNYLVWRVVVVLSEHLSPPFREALHELAQEMEGSDKPQELARVCLGQANRHFGMALGALFVHEHFSAASKAKVQQLVEDIKYILGQRLEELDWMDAETRAAARAKLQYMMVMVGYPDFLLKPDAVDKEYEFEVHEKTYFKNILNSIRFSIQLSVKKIRQEVDKSTWLLPPQALNAYYLPNKNQMVFPAGILQPTLYDPDFPQSLNYGGIGTIIGHELTHGYDDWGGQYDRSGNLLHWWTEASYSRFLRKAECIVRLYDNFTVYNQRVNGKHTLGENIADMGGLKLAYHAYQKWVREHGPEHPLPRLKYTHDQLFFIAFAQNWCIKRRSQSIYLQVLTDKHAPEHYRVLGSVSQFEEFGRAFHCPKDSPMNPAHKCSVW
With B4, the “cleavage of PACAP(1-27), HPLC” value in the series with PACAP(1-27) is reported as “None of the aforementioned enzymes was able to cleave PACAP(1-27) under the assay conditions as described above for IGS5”.
